Measurements from article PMC6858323 (2019).

B1: PilT^Pa two-hybrid fusion from pKT25::PilT^Pa (wild type) [Pseudomonas aeruginosa] / PilC^Pa two-hybrid fusion from pUT18C::PilC^Pa [Pseudomonas aeruginosa] (parent complex)
chain 1: MDITELLAFSAKQGASDLHLSAGLPPMIRVDGDVRRINLPPLEHKQVHALIYDIMNDKQRKDFEEFLETDFSFEVPGVARFRVNAFNQNRGAGAVFRTIPSKVLTMEELGMGEVFKRVSDVPRGLVLVTGPTGSGKSTTLAAMLDYLNNTKYHHILTIEDPIEFVHESKKCLVNQREVHRDTLGFSEALRSALREDPDIILVGEMRDLETIRLALTAAETGHLVFGTLHTTSAAKTIDRVVDVFPAEEKAMVRSMLSESLQSVISQTLIKKIGGGRVAAHEIMIGTPAIRNLIREDKVAQMYSAIQTGGSLGMQTLDMCLKGLVAKGLISRENAREKAKIPENF
chain 2: MLVKAHLRKQGINPLKVRKKGISLLGAGKKVKPMDIALFTRQMATMMGAGVPLLQSFDIIGEGFDNPNMRKLVDEIKQEVSSGNSLANSLRKKPQYFDELYCNLVDAGEQSGALENLLDRVATYKEKTESLKAKIRKAMTYPIAVIIVALIVSAILLIKVVPQFQSVFQGFGAELPAFTQMVVNLSEFLQEWWLAVIVGVGAIGFTFKELHKRSKKFRDTLDRTILKLPIFGGIVYKSAVARYARTLSTTFAAGVPLVDALDSVSGATGNIVFKNAVSKIKQDVSTGMQLNFSMRTTSVFPNMAIQMTAIGEESGSLDEMLSKVASYYEEEVDNAVDNLTTLMEPMIMAVLGVLVGGLIVAMYLPIFQLGNVVG

Variants of: B1
Test: bacterial two-hybrid (BACTH), β-galactosidase activity; E. coli BTH101; n = 3; parent: 650; read off a plot
In the case of chain 1 MDITELLAFSAKQGASDLHLSAGLPPMIRVDGDVRRINLPPLEHKQVHALIYDIMNDQQRKDFEEFLETDFSFEVPGVARFRVNAFNQNRGAGAVFRTIPSKVLTMEELGMGEVFKRVSDVPRGLVLVTGPTGSGKSTTLAAMLDYLNNTKYHHILTIEDPIEFVHESKKCLVNQREVHRDTLGFSEALRSALREDPDIILVGEMRDLETIRLALTAAETGHLVFGTLHTTSAAKTIDRVVDVFPAEEKAMVRSMLSESLQSVISQTLIKKIGGGRVAAHEIMIGTPAIRNLIREDKVAQMYSAIQTGGSLGMQTLDMCLKGLVAKGLISRENAREKAKIPENF [chain 1 K58Q], the response is reported as roughly 630 Miller units.
In the case of chain 1 MDITELLAFSAKQGASDLHLSAGLPPMIRVDGDVRRINLPPLEHKQVHALIYDIMNDAQRKDFEEFLETDFSFEVPGVARFRVNAFNQNRGAGAVFRTIPSKVLTMEELGMGEVFKRVSDVPRGLVLVTGPTGSGKSTTLAAMLDYLNNTKYHHILTIEDPIEFVHESKKCLVNQREVHRDTLGFSEALRSALREDPDIILVGEMRDLETIRLALTAAETGHLVFGTLHTTSAAKTIDRVVDVFPAEEKAMVRSMLSESLQSVISQTLIKKIGGGRVAAHEIMIGTPAIRNLIREDKVAQMYSAIQTGGSLGMQTLDMCLKGLVAKGLISRENAREKAKIPENF [chain 1 K58A], the response is reported as roughly 700 Miller units.
chain 1 MDITELLAFSAKQGASDLHLSAGLPPMIRVDGDVRRINLPPLEHKQVHALIYDIMNDRQRKDFEEFLETDFSFEVPGVARFRVNAFNQNRGAGAVFRTIPSKVLTMEELGMGEVFKRVSDVPRGLVLVTGPTGSGKSTTLAAMLDYLNNTKYHHILTIEDPIEFVHESKKCLVNQREVHRDTLGFSEALRSALREDPDIILVGEMRDLETIRLALTAAETGHLVFGTLHTTSAAKTIDRVVDVFPAEEKAMVRSMLSESLQSVISQTLIKKIGGGRVAAHEIMIGTPAIRNLIREDKVAQMYSAIQTGGSLGMQTLDMCLKGLVAKGLISRENAREKAKIPENF [chain 1 K58R] showed a response of roughly 750 Miller units.
For chain 1 MDITELLAFSAKQGASDLHLSAGLPPMIRVDGDVRRINLPPLEHKQVHALIYDIMNDKQRKDFEEFLETDFSFEVPGVARFRVNAFNQNRGAGAVFRTIPSKVLTMEELGMGEVFKRVSDVPRGLVLVTGPTGSGKSTTLAAMLDYLNNTKYHHILTIEDPIEFVHESKKCLVNQREVHRDTLGFSEALRSALREDPDIILVGEMRDLETIRLALRAAETGHLVFGTLHTTSAAKTIDRVVDVFPAEEKAMVRSMLSESLQSVISQTLIKKIGGGRVAAHEIMIGTPAIRNLIREDKVAQMYSAIQTGGSLGMQTLDMCLKGLVAKGLISRENAREKAKIPENF [chain 1 T216R], the response was roughly 700 Miller units.
chain 1 MDITELLAFSAKQGASDLHLSAGLPPMIRVDGDVRRINLPPLEHKQVHALIYDIMNDKQRKDFEEFLETDFSFEVPGVARFRVNAFNQNRGAGAVFRTIPSKVLTMEELGMGEVFKRVSDVPRGLVLVTGPTGSGKSTTLAAMLDYLNNTKYHHILTIEDPIEFVHESKKCLVNQREVHRDTLGFSEALRSALREDPDIILVGEMRDLETIRLALTAAETGHLVFGTLHTTSAAKTIDAVVDVFPAEEKAMVRSMLSESLQSVISQTLIKKIGGGRVAAHEIMIGTPAIRNLIREDKVAQMYSAIQTGGSLGMQTLDMCLKGLVAKGLISRENAREKAKIPENF [chain 1 R239A] gave a response of roughly 490 Miller units.
In the case of chain 1 MDITELLAFSAKQGASDLHLSAGLPPMIRVDGDVRRINLPPLEHKQVHALIYDIMNDKQRKDFEEFLETDFSFEVPGVARFRVNAFNQNRGAGAVFRTIPSKVLTMEELGMGEVFKRVSDVPRGLVLVTGPTGSGKSTTLAAMLDYLNNTKYHHILTIEDPIEFVHESKKCLVNQREVHRDTLGFSEALRSALREDPDIILVGEMRDLETIRLALTAAKTGHLVFGTLHTTSAAKTIDRVVDVFPAEEKAMVRSMLSESLQSVISQTLIKKIGGGRVAAHEIMIGTPAIRNLIREDKVAQMYSAIQTGGSLGMQTLDMCLKGLVAKGLISRENAREKAKIPENF [chain 1 E219K], the response is reported as roughly 230 Miller units.
With chain 1 MDITELLAFSAKQGASDLHLSAGLPPMIRVDGDVRRINLPPLEHKQVHALIYDIMNDKQRKDFEEFLETDFSFEVPGVARFRVNAFNQNRGAGAVFRTIPSKVLTMEELGMGEVFKRVSDVPRGLVLVTGPTGSGKSTTLAAMLDYLNNTKYHHILTIEDPIEFVHESKKCLVNQREVHRDTLGFSEALRSALREDPDIILVGEMRDLETIRLALTAAETGHLVFGTLHTTSAAKTIDRVVDVFPAEEKAMVRSMLSASLQSVISQTLIKKIGGGRVAAHEIMIGTPAIRNLIREDKVAQMYSAIQTGGSLGMQTLDMCLKGLVAKGLISRENAREKAKIPENF [chain 1 E258A] the response was roughly 850 Miller units.
For chain 1 MDITELLAFSAKQGASDLHLSAGLPPMIRVDGDVRRINLPPLEHKQVHALIYDIMNDKQRKDFEEFLETDFSFEVPGVARFRVNAFNQNRGAGAVFRTIPSKVLTMEELGMGEVFKRVSDVPRGLVLVTGPTGSGKSTTLAAMLDYLNNTKYHHILTIEDPIEFVHESKKCLVNQREVHRDTLGFSEALRSALREDPDIILVGEMRDLETIRLALTAAETGHLVFGTLHTTSAAKTIDRVVKVFPAEEKAMVRSMLSESLQSVISQTLIKKIGGGRVAAHEIMIGTPAIRNLIREDKVAQMYSAIQTGGSLGMQTLDMCLKGLVAKGLISRENAREKAKIPENF [chain 1 D242K], the response was roughly 670 Miller units.
chain 1 MDITELLAFSAKQGASDLHLSAGLPPMIRVDGDVRRINLPPLEHKQVHALIYDIMNDKQRKDFEEFLETDFSFEVPGVARFRVNAFNQNRGAGAVFRTIPSKVLTMEELGMGEVFKRVSDVPRGLVLVTGPTGSGKSTTLAAMLDYLNNTKYHHILTIEDPIEFVHESKKCLVNQREVHRDTLGFSEALRSALREDPDIILVGEMRDLETIRLALTAAETGHLVFGTLHTTSAAKTIDRVVDVFPAEEKAMVRSMLSESLQSVISQTLIKKIGGGRVAAHEIMIGTPAIRNLIEEDKVAQMYSAIQTGGSLGMQTLDMCLKGLVAKGLISRENAREKAKIPENF [chain 1 R294E] was tested, and the response was roughly 200 Miller units.
chain 1 MDITELLAFSAKQGASDLHLSAGLPPMIRVKGDVRRINLPPLEHKQVHALIYDIMNDKQRKDFEEFLETDFSFEVPGVARFRVNAFNQNRGAGAVFRTIPSKVLTMEELGMGEVFKRVSDVPRGLVLVTGPTGSGKSTTLAAMLDYLNNTKYHHILTIEDPIEFVHESKKCLVNQREVHRDTLGFSEALRSALREDPDIILVGEMRDLETIRLALTAAETGHLVFGTLHTTSAAKTIDRVVDVFPAEEKAMVRSMLSESLQSVISQTLIKKIGGGRVAAHEIMIGTPAIRNLIREDKVAQMYSAIQTGGSLGMQTLDMCLKGLVAKGLISRENAREKAKIPENF [chain 1 D31K] was tested, and the response was roughly 220 Miller units.
chain 1 MDITELLAFSAKQGASDLHLSAGLPPMIRVDGDVRRINLPPLEHKQVHALIYDIMNDKQRKDFEEFLETDFSFEVPGVARFRVNAFNQNRGAGAVFRTIPSKVLTMEELGMGEVFKRVSDVPDGLVLVTGPTGSGKSTTLAAMLDYLNNTKYHHILTIEDPIEFVHESKKCLVNQREVHRDTLGFSEALRSALREDPDIILVGEMRDLETIRLALTAAETGHLVFGTLHTTSAAKTIDRVVDVFPAEEKAMVRSMLSESLQSVISQTLIKKIGGGRVAAHEIMIGTPAIRNLIREDKVAQMYSAIQTGGSLGMQTLDMCLKGLVAKGLISRENAREKAKIPENF [chain 1 R123D] showed a response of roughly 140 Miller units.
